Reference: US20260234268A1, “ANTI-ASGR1 MONOCLONAL ANTIBODY AND USE THEREOF” (CHOLESGEN (SHANGHAI) CO., LTD., priority 2022, published 2026)

Assays:
LXRα [1] = assay: Western blotting of LXRα in Huh7 cells incubated with purified neutralizing antibody; assay type: cell-based, human; details: 72 hours, Western blotting (FIG. 1c)
Description: (§1) (a) Steps for preparing ASGR1 monoclonal neutralizing antibody. Purified ASGR1 protein is used as the antigen to immunize rabbits, and after the first round of screening, four B-cell monoclonal antibodies are selected as candidates. The coding region of the variable region of the antibody is then sequenced and cloned into an antibody expression vector, which is transfected into mammalian cells. The efficiency of transfection is confirmed by Western blotting and real-time quantitative PCR. Finally, the rabbit-derived Fc fragment is replaced with a murine Fc fragment. The neutralizing antibody 4B9 is selected for large-scale production and used in subsequent experiments. (b) ASGR1 protein purified from HEK293T cells is stained with Coomassie Brilliant Blue. (c) Huh7 cells are incubated with purified neutralizing antibody for 72 hours, followed by Western blotting analysis of the protein expression of LXRα. (d) Primary hepatocytes are isolated from 8-week-old wild-type C57B/L6 mice. […] The primary hepatocytes are incubated with ASGR1 neutralizing antibody 4B9 for 72 hours, after which cells are collected, total RNA is extracted from the cells, and target genes of LXR are analyzed by real-time quantitative PCR. […]

LXRα [2] = assay: Western blotting of LXRα in primary hepatocytes incubated with monoclonal neutralizing antibodies; assay type: cell-based, mouse; details: primary hepatocytes of wild-type C57B/L6 mice, various concentrations, 72 hours, Western blotting (FIG. 1d)
target genes of LXR = assay: Real-time quantitative PCR of target genes of LXR in primary hepatocytes incubated with 4B9; assay type: cell-based; details: primary mouse hepatocytes, 72 hours, real-time quantitative PCR (FIG. 1e)
Description: as §1

[3] = test system: mice fed a high-fat, high-cholesterol, and cholate (HF/HC/BS) diet; assay: 4B9 in mice fed HF/HC/BS diet, 14 days (Example 1, FIG. 2); assay type: in vivo, mouse
Description: (§2) All data are presented as mean±SEM.
We further investigated whether 4B9 was able to completely simulate the improvement of Asgr1 deletion on high-fat, high-cholesterol conditions.

[4] = test system: mice fed a high-fat, high-cholesterol, and cholate (HF/HC/BS) diet; assay: 4B9 and Ezetimibe, alone or combined, in mice fed HF/HC/BS diet (Example 3, FIG. 4); assay type: in vivo, mouse
Description: as §2
We then devised an experiment as in FIG. 4 to verify the hypothesis. Mice were randomly divided into 8 groups according to the genotype (n=6) and fed an HF/HC/BS diet. They were intragastrically administered with EZ at 10 mg/kg per day and were intraperitoneally injected with 4B9 at 10 mg/kg every other day. The mice were sacrificed on day 7 to collect their tissues.

[5] = test system: mice fed a high-fat, high-cholesterol, and cholate (HF/HC/BS) diet; assay: 4B9 and atorvastatin, alone or combined, in mice fed HF/HC/BS diet, 14 days (Example 2, FIG. 3)
Description: 8-week-old Asgr1 knockout mice and wild-type littermates are randomly divided into 8 groups as shown in the figure according to the genotype, with 6 mice per group. The mice are given free access to water and fed a high-fat, high-cholesterol, and cholate (HF/HC/BS) diet (60% fat, 1.25% cholesterol, and 0.5% cholate). […] After 14 days, the mice are fasted for 4 hours before being sacrificed. All data are presented as mean±SEM. Statistical significance is calculated using an unpaired two-tailed Student's t-test. *p<0.05, **p<0.01, ***p<0.001. (a) Western blotting analysis of liver samples; (b) total cholesterol in serum; (c) triglyceride in serum; (d) total cholesterol in liver; (e) triglyceride in liver; (f) concentration of cholesterol in bile; (g) total cholesterol in bile; (h) concentration of bile acid in bile; (i) total bile acid in bile; (j) total cholesterol in feces; (k) body weight; (l) daily food intake; (m) ratio of liver weight to body weight; (n) blood glucose; (o) alanine transaminase in serum; (p) aspartate transaminase in serum; (q-r) real-time quantitative PCR analysis of genes related to cholesterol efflux, cholesterol synthesis and absorption, lipid synthesis, and bile acid synthesis in the liver of mice, and genes in other pathways, with cyclophilin as an internal reference; (s) hematoxylin-eosin staining of liver sections; (t) oil red O staining of liver sections.
In the experiment, wild-type littermates were used as a control. All mice were housed in an SPF (specific pathogen-free) facility and kept on a 12-hour light/12-hour dark cycle. 8-week-old male or female mice were fed a high-fat, high-cholesterol, and cholate diet (Research Diets, D12109C) as required by the experimental protocols. For treatments involving antibody neutralization or the combination of antibodies with statins or Ezetimibe, the mice were intraperitoneally injected with antibodies or intragastrically administered with drugs at specified doses. All animals were fasted for 4 hours before being sacrificed.
The collected cells or tissues were lysed in RIPA lysis buffer supplemented with protease and phosphatase inhibitors. The RIPA lysis buffer contained 50 mM Tris-HCl (pH=8.0), 150 mM NaCl, 2 mM MgCl2, 1.5% NP-40, 0.1% SDS, and 0.5% sodium deoxycholate. The protease inhibitor contained 10 μM MG-132, 10 μg/mL leupeptin, 1 mM PMSF, 5 μg/mL pepstatin, 25 μg/mL ALLN, and 1 mM DTT. The protein concentration of the lysate was determined using a BCA method (Thermo Fisher Scientific). The protein samples were incubated with membrane solubilization buffer (62.5 mM Tris-HCl (pH=6.8), 15% SDS, 8 M urea, 10% glycerol, and 100 mM DTT) and 4× loading buffer (150 mM Tris-HCl (pH=6.8), 12% SDS, 30% glycerol, 6% β-mercaptoethanol, and 0.02% bromophenol blue) at 37° C. for 30 minutes. The protein samples were separated by SDS-PAGE and transferred to a PVDF membrane, which was blocked in TBST, i.e., TBS containing 0.075% Tween 20 and 5% skim milk (3% BSA for phosphorylation experiments) for 1 hour. The membrane was incubated overnight at 4° C. with a specified primary antibody, and washed three times with TBST. Finally, Pierce ECL Plus Western blotting substrate (Thermo Fisher Scientific) was used for detection.
Blood was collected from the orbital sinus to obtain serum for the measurement of total cholesterol and triglyceride.

[6] = wild-type mice, HF/HC/BS diet, 4B9 10 mg/kg/day i.p. every other day, 14 days, Western blotting (FIG. 2a)
[7] = sacrificed on day 7, 4B9 10 mg/kg i.p. every other day, EZ 10 mg/kg per day intragastric (FIGS. 4a, 4p-q)

B1: 4B9: ASGR1 monoclonal neutralizing antibody from immunized rabbits, rabbit Fc replaced with mouse Fc; VL SEQ ID NO: 28, VH SEQ ID NO: 29 (antibody, listed as Oryctolagus cuniculus, V domains shown)
VH: QSLEESGGDLVKPGATMTLTCKASGFSFSGSLWICWVRQAPGKGLEWIACIYVGSSGSTYYASWAKGRFTISTTSSTTVTLQMTSLTAADTATYFCARRYTDAYGGYPAGSFVFKLWGPGTLVTVSS
VL: QVLTQTPSPVSAAVGGTVTINCQASQSVYNNKNLGWYQQKPGQPPKLLIYYASDLASGVPSRFKGSGSGKQFTLTISDVQCDDAATYYCQGEFSCSSADCCAFGGGTEVVVK
modifications: mouse Fc
significant increase: total amount of total cholesterol in bile ([3]; HF/HC/BS diet, 4B9 10 mg/kg/day i.p. every other day, 14 days, vs control group (FIG. 2i)) | total cholesterol in feces ([3]; HF/HC/BS diet, 4B9 10 mg/kg/day i.p. every other day, 14 days, vs control group (FIG. 2k)) | concentration of total bile acid in bile ([3]; HF/HC/BS diet, 4B9 10 mg/kg/day i.p. every other day, 14 days, vs control group (FIG. 2l)) | total amount of total bile acid in bile ([3]; HF/HC/BS diet, 4B9 10 mg/kg/day i.p. every other day, 14 days, vs control group (FIG. 2m)) | concentration of total cholesterol in bile ([3]; HF/HC/BS diet, 4B9 10 mg/kg/day i.p. every other day, 14 days, vs control group (FIG. 2h)) | volume of gallbladder ([3]; HF/HC/BS diet, 4B9 10 mg/kg/day i.p. every other day, 14 days, vs control group (FIGS. 2g, j))
remained unchanged: all parameters in Asgr1 knockout mice with or without injection of 4B9 ([3]; Asgr1 knockout mice, HF/HC/BS diet, 4B9 10 mg/kg/day i.p. every other day, 14 days (FIG. 2a)) | LDLR in liver [3, 6]
significant decrease: total cholesterol in serum ([3]; HF/HC/BS diet, 4B9 10 mg/kg/day i.p. every other day, 14 days, vs control group (FIG. 2c)) | total cholesterol in liver ([3]; HF/HC/BS diet, 4B9 10 mg/kg/day i.p. every other day, 14 days, vs control group (FIG. 2e)) | triglyceride in liver ([3]; HF/HC/BS diet, 4B9 10 mg/kg/day i.p. every other day, 14 days, vs control group (FIG. 2f)) | triglyceride in serum ([3]; HF/HC/BS diet, 4B9 10 mg/kg/day i.p. every other day, 14 days, vs control group (FIG. 2d))
consistent with protein-level changes: real-time quantitative PCR of liver genes (cholesterol efflux, cholesterol synthesis and absorption, lipid synthesis, bile acid metabolism) ([3]; HF/HC/BS diet, 4B9 10 mg/kg/day i.p. every other day, 14 days (FIG. 2b))
without affecting the levels: cholesterol synthesis or absorption-related genes and their proteins in liver ([4]; sacrificed on day 7, 4B9 10 mg/kg i.p. every other day (FIGS. 4a, 4p-q)) | cholesterol synthesis or absorption-related genes and their proteins in liver ([5]; 4B9 10 mg/kg/day i.p. every other day (FIGS. 3a, 3q-r))
inhibited the levels: lipid synthesis-related genes and their proteins (SREBP1, FASN) in liver [4, 7] | lipid synthesis-related genes and their proteins (SREBP1, FASN) in liver ([5]; 4B9 10 mg/kg/day i.p. every other day, atorvastatin 30 mg/kg/day intragastric daily (FIGS. 3a, 3q-r))
increased levels: cholesterol efflux-related genes and their proteins (LXRs, ABCG8, ABCA1, CYP7A1) in liver [4, 7]
No significant differences: body weight ([4]; 8 groups of mice, sacrificed on day 7, 4B9 10 mg/kg i.p. every other day, EZ 10 mg/kg per day intragastric (FIG. 4j)) | daily food intake ([4]; 8 groups of mice, sacrificed on day 7, 4B9 10 mg/kg i.p. every other day, EZ 10 mg/kg per day intragastric (FIG. 4k)) | ratio of liver weight to body weight ([4]; 8 groups of mice, sacrificed on day 7, 4B9 10 mg/kg i.p. every other day, EZ 10 mg/kg per day intragastric (FIG. 4l)) | blood glucose ([4]; 8 groups of mice, sacrificed on day 7, 4B9 10 mg/kg i.p. every other day, EZ 10 mg/kg per day intragastric (FIG. 4m)) | ALT ([4]; 8 groups of mice, sacrificed on day 7, 4B9 10 mg/kg i.p. every other day, EZ 10 mg/kg per day intragastric (FIG. 4n)) | AST ([4]; 8 groups of mice, sacrificed on day 7, 4B9 10 mg/kg i.p. every other day, EZ 10 mg/kg per day intragastric (FIG. 4o))
no significant changes: body weight ([3]; HF/HC/BS diet, 4B9 10 mg/kg/day i.p. every other day, 14 days (FIG. 2n)) | daily food intake ([3]; HF/HC/BS diet, 4B9 10 mg/kg/day i.p. every other day, 14 days (FIG. 2o)) | ratio of liver weight to body weight ([3]; HF/HC/BS diet, 4B9 10 mg/kg/day i.p. every other day, 14 days (FIG. 2p)) | blood glucose ([3]; HF/HC/BS diet, 4B9 10 mg/kg/day i.p. every other day, 14 days (FIG. 2q)) | ALT (alanine transaminase in serum) ([3]; HF/HC/BS diet, 4B9 10 mg/kg/day i.p. every other day, 14 days (FIG. 2r)) | AST (aspartate transaminase in serum) ([3]; HF/HC/BS diet, 4B9 10 mg/kg/day i.p. every other day, 14 days (FIG. 2s))
effectively reduce: total cholesterol in serum ([4]; sacrificed on day 7, 4B9 10 mg/kg i.p. every other day, EZ 10 mg/kg per day intragastric (FIG. 4b)) | triglyceride in serum ([4]; sacrificed on day 7, 4B9 10 mg/kg i.p. every other day, EZ 10 mg/kg per day intragastric (FIG. 4c)) | triglyceride in liver ([4]; sacrificed on day 7, 4B9 10 mg/kg i.p. every other day, EZ 10 mg/kg per day intragastric (FIG. 4e)) | total cholesterol in liver ([4]; sacrificed on day 7, 4B9 10 mg/kg i.p. every other day, EZ 10 mg/kg per day intragastric (FIG. 4d)) | total cholesterol in serum ([5]; 4B9 10 mg/kg/day i.p. every other day, atorvastatin 30 mg/kg/day intragastric daily (FIG. 3b)) | triglyceride in serum ([5]; 4B9 10 mg/kg/day i.p. every other day, atorvastatin 30 mg/kg/day intragastric daily (FIG. 3c)) | triglyceride in liver ([5]; 4B9 10 mg/kg/day i.p. every other day, atorvastatin 30 mg/kg/day intragastric daily (FIG. 3e)) | total cholesterol in liver ([5]; 4B9 10 mg/kg/day i.p. every other day, atorvastatin 30 mg/kg/day intragastric daily (FIG. 3d))
increased: total amount of total cholesterol in bile ([4]; sacrificed on day 7, 4B9 10 mg/kg i.p. every other day, EZ 10 mg/kg per day intragastric (FIG. 4g)) | total amount of total bile acid in bile ([4]; sacrificed on day 7, 4B9 10 mg/kg i.p. every other day, EZ 10 mg/kg per day intragastric (FIG. 4i)) | total amount of total cholesterol in bile ([5]; 4B9 10 mg/kg/day i.p. every other day, atorvastatin 30 mg/kg/day intragastric daily (FIG. 3g)) | total amount of total bile acid in bile ([5]; 4B9 10 mg/kg/day i.p. every other day, atorvastatin 30 mg/kg/day intragastric daily (FIG. 3i))
significantly up-regulated: cholesterol efflux-related genes (target genes of LXR) (target genes of LXR) | p-ACC in liver [3, 6]
very significant lipid-lowering effect: overall lipid-lowering effect ([3]; summary of Example 1, high-fat, high-cholesterol diet)
significantly increase: protein stability of LXRα (LXRα [1]) | protein stability of LXRα (LXRα [2])
significantly reduced: BARD1 in liver [3, 6] | lipid synthesis-related proteins SREBP1 and FASN in liver [3, 6]
significantly increased: cholesterol efflux-related proteins (LXR, ABCG8, ABCA1, CYP7A1) in liver [3, 6] | total cholesterol in feces ([5]; 4B9 10 mg/kg/day i.p. every other day, atorvastatin 30 mg/kg/day intragastric daily (FIG. 3j))
